Measurements published in paper PMC314469, “Protein Interaction Networks by Proteome Peptide Scanning” (PLoS Biology, 2004).

T1: Boi2 SH3 (BOI2_YEAST), P39969
T1 chain: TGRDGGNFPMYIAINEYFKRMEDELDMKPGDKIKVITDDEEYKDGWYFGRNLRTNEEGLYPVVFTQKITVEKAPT

T2: Rvs167 SH3 (RV167_YEAST), P39743
T2 chain: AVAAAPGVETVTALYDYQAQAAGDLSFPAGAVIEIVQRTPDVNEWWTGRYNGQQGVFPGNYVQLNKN

T3: Yfr024 SH3 (LSB3_YEAST), P43603
T3 chain: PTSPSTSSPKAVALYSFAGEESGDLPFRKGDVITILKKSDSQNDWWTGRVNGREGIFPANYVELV

T4: Yhr016c SH3 (YSC84_YEAST), P32793
T4 chain: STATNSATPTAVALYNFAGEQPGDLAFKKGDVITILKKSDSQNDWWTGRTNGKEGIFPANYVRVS

T5: Boi1 SH3 (BOI1_YEAST), P38041
T5 chain: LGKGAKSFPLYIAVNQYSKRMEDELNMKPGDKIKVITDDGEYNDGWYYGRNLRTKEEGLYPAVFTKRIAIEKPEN


Biological target: T1, Boi2 SH3 (BOI2_YEAST), P39969
Assay: SPOT array

Binder	normalised SPOT signal, Boehringer light units (BLU); mean over the file's lines of this peptide
RDKPSEPERTKDGS [YJL184W 49-62]	27.8
QTSPGQPRKGQNGS [YFR028C 427-440]	22.6
QTYPAQPPKIGNAF [YMR016C 219-232]	35.1
QSTPTPPAKRLFLI [YKL165C 41-54]	48.8
QSPPRSPGRSPTRR [YLR086W 108-121]	3450
RAPPPVPKKPSSRI [YIR003W 387-400]	42
QYIPPPPPKYINSK [YDR207C 482-495]	45.9
QVPPKSPEKSGWLY [YNL257C 304-317]	22.9
QSNPTSPTKQTFTI [YBL085W 600-613]	65.7
RFNPAIPLRIYLKT [YLR073C 15-28]	38.4
RSSPWSPSRSHGAV [YLR169W 91-104]	92.9
RAVPILPPRNNVEP [YBR108W 543-556]	77
RGIPARPSKDDVMK [YPL073C 83-96]	14.7
QSQPPRPPRPAANL [YGR268C 24-37]	16
REEPPLPKRIRISK [YKL214C 57-70]	65.9
RFDPKSPTKRSIAI [YMR129W 524-537]	62
QYYPEEPTKPTVKT [YGR019W 6-19]	37.2

Biological target: T2, Rvs167 SH3 (RV167_YEAST), P39743
Assay: SPOT array

Binder	normalised SPOT signal, Boehringer light units (BLU); mean over the file's lines of this peptide
RDKPSEPERTKDGS [YJL184W 49-62]	24.1
QTSPGQPRKGQNGS [YFR028C 427-440]	64
QTYPAQPPKIGNAF [YMR016C 219-232]	33.9
QSTPTPPAKRLFLI [YKL165C 41-54]	35.4
QSPPRSPGRSPTRR [YLR086W 108-121]	906
RAPPPVPKKPSSRI [YIR003W 387-400]	29.1
QYIPPPPPKYINSK [YDR207C 482-495]	112
QVPPKSPEKSGWLY [YNL257C 304-317]	23.7
QSNPTSPTKQTFTI [YBL085W 600-613]	60.4
RFNPAIPLRIYLKT [YLR073C 15-28]	116
RSSPWSPSRSHGAV [YLR169W 91-104]	117
RAVPILPPRNNVEP [YBR108W 543-556]	59500
RGIPARPSKDDVMK [YPL073C 83-96]	1080
QSQPPRPPRPAANL [YGR268C 24-37]	105
REEPPLPKRIRISK [YKL214C 57-70]	11800
RFDPKSPTKRSIAI [YMR129W 524-537]	40
QYYPEEPTKPTVKT [YGR019W 6-19]	6.4

Biological target: T3, Yfr024 SH3 (LSB3_YEAST), P43603
Assay: SPOT array

Binder	normalised SPOT signal, Boehringer light units (BLU); mean over the file's lines of this peptide
RDKPSEPERTKDGS [YJL184W 49-62]	112
QTSPGQPRKGQNGS [YFR028C 427-440]	118
QTYPAQPPKIGNAF [YMR016C 219-232]	117
QSTPTPPAKRLFLI [YKL165C 41-54]	1420
QSPPRSPGRSPTRR [YLR086W 108-121]	1890
RAPPPVPKKPSSRI [YIR003W 387-400]	28900
QYIPPPPPKYINSK [YDR207C 482-495]	393
QVPPKSPEKSGWLY [YNL257C 304-317]	0
QSNPTSPTKQTFTI [YBL085W 600-613]	148
RFNPAIPLRIYLKT [YLR073C 15-28]	3040
RSSPWSPSRSHGAV [YLR169W 91-104]	2360
RAVPILPPRNNVEP [YBR108W 543-556]	38300
RGIPARPSKDDVMK [YPL073C 83-96]	7220
QSQPPRPPRPAANL [YGR268C 24-37]	27400
REEPPLPKRIRISK [YKL214C 57-70]	49100
RFDPKSPTKRSIAI [YMR129W 524-537]	321
QYYPEEPTKPTVKT [YGR019W 6-19]	49.9

Biological target: T4, Yhr016c SH3 (YSC84_YEAST), P32793
Assay: SPOT array

Binder	normalised SPOT signal, Boehringer light units (BLU); mean over the file's lines of this peptide
RDKPSEPERTKDGS [YJL184W 49-62]	120
QTSPGQPRKGQNGS [YFR028C 427-440]	177
QTYPAQPPKIGNAF [YMR016C 219-232]	263
QSTPTPPAKRLFLI [YKL165C 41-54]	146
QSPPRSPGRSPTRR [YLR086W 108-121]	408
RAPPPVPKKPSSRI [YIR003W 387-400]	501
QYIPPPPPKYINSK [YDR207C 482-495]	81.6
QVPPKSPEKSGWLY [YNL257C 304-317]	117
QSNPTSPTKQTFTI [YBL085W 600-613]	182
RFNPAIPLRIYLKT [YLR073C 15-28]	846
RSSPWSPSRSHGAV [YLR169W 91-104]	1090
RAVPILPPRNNVEP [YBR108W 543-556]	33600
RGIPARPSKDDVMK [YPL073C 83-96]	880
QSQPPRPPRPAANL [YGR268C 24-37]	11000
REEPPLPKRIRISK [YKL214C 57-70]	50200
RFDPKSPTKRSIAI [YMR129W 524-537]	71.9
QYYPEEPTKPTVKT [YGR019W 6-19]	85.8

Biological target: T5, Boi1 SH3 (BOI1_YEAST), P38041
Assay: SPOT array

Binder	normalised SPOT signal, Boehringer light units (BLU); mean over the file's lines of this peptide
RDKPSEPERTKDGS [YJL184W 49-62]	74.9
QTSPGQPRKGQNGS [YFR028C 427-440]	157
QTYPAQPPKIGNAF [YMR016C 219-232]	42.7
QSTPTPPAKRLFLI [YKL165C 41-54]	56.9
QSPPRSPGRSPTRR [YLR086W 108-121]	33500
RAPPPVPKKPSSRI [YIR003W 387-400]	129
QYIPPPPPKYINSK [YDR207C 482-495]	122
QVPPKSPEKSGWLY [YNL257C 304-317]	11.9
QSNPTSPTKQTFTI [YBL085W 600-613]	62.2
RFNPAIPLRIYLKT [YLR073C 15-28]	66.6
RSSPWSPSRSHGAV [YLR169W 91-104]	147
RAVPILPPRNNVEP [YBR108W 543-556]	49.7
RGIPARPSKDDVMK [YPL073C 83-96]	55
QSQPPRPPRPAANL [YGR268C 24-37]	577
REEPPLPKRIRISK [YKL214C 57-70]	2310
RFDPKSPTKRSIAI [YMR129W 524-537]	129
QYYPEEPTKPTVKT [YGR019W 6-19]	55.2
